In publication PMC7610691 (Nature structural & molecular biology, 2020):

Legend:
[1] = molecular target: T1, Smc4 (S. cerevisiae condensin subunit) (S. cerevisiae, UniProt Q12267 1-1418); test: cryo-EM structure
T1 sequence: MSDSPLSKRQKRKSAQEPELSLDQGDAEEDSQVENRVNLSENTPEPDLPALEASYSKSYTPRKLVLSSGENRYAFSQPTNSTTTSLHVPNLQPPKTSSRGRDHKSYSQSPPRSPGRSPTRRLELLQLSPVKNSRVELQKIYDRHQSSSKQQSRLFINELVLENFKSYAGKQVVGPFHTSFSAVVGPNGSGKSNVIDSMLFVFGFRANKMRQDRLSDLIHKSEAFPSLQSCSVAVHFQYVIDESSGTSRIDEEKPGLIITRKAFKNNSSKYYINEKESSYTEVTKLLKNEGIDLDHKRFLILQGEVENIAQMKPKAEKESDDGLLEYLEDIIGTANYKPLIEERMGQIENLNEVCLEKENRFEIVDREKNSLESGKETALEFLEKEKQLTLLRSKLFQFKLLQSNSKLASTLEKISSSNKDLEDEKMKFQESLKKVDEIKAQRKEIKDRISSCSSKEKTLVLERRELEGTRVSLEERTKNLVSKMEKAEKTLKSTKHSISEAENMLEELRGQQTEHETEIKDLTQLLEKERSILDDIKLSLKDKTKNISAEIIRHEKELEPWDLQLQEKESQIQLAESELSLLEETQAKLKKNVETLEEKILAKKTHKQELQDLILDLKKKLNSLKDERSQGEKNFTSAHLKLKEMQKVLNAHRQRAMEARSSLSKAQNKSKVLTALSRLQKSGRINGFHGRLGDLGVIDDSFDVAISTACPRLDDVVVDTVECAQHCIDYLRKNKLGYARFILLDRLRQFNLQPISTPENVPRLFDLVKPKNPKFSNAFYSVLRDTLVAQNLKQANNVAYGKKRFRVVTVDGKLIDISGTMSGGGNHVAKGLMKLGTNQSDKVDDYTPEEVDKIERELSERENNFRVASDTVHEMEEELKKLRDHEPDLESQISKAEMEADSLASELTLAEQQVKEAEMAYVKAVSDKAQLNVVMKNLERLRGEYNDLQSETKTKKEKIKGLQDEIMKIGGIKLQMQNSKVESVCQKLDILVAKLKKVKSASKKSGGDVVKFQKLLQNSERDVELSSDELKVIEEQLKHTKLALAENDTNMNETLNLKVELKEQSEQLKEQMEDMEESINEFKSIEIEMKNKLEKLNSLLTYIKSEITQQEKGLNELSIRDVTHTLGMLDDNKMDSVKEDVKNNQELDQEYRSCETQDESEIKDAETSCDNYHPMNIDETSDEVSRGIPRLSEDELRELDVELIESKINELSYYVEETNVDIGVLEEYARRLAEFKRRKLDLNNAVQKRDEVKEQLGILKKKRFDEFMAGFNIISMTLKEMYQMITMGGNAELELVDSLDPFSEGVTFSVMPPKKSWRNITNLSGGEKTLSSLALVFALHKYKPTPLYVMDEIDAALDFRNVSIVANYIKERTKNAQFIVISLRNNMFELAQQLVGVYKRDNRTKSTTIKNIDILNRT

[2] = molecular target: T2, Smc2 (S. cerevisiae condensin subunit) (S. cerevisiae, UniProt P38989 1-1170); test: cryo-EM structure
T2 sequence: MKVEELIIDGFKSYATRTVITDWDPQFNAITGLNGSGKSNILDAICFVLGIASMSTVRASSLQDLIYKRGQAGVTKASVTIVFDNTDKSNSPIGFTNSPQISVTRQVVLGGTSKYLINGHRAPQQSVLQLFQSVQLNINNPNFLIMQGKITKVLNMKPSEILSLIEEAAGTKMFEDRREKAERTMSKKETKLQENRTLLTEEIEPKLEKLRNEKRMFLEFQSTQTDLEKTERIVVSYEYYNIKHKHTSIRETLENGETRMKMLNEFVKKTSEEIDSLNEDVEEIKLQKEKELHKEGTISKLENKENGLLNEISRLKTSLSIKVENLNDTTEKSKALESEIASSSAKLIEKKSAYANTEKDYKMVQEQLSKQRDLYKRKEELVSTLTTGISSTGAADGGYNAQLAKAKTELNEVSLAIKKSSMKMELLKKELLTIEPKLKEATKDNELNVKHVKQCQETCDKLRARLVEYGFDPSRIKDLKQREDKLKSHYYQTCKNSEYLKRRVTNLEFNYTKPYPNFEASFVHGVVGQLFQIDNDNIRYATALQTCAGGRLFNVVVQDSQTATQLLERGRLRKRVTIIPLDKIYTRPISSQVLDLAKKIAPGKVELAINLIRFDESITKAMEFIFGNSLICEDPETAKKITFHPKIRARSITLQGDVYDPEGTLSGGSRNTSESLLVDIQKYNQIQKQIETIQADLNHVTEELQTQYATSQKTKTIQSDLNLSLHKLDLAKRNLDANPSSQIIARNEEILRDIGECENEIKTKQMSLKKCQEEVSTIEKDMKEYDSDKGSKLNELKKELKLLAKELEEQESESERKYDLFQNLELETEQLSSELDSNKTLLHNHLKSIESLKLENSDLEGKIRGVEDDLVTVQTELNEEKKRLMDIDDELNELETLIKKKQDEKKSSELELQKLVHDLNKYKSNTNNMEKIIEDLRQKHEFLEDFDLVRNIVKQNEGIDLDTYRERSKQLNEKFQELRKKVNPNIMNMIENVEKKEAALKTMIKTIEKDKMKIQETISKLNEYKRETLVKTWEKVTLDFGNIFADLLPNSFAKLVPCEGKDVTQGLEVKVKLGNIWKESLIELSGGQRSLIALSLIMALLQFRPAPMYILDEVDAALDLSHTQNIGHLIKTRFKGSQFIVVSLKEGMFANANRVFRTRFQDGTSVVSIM

- binding result [1]: binds
- binding result [2]: binds
B1: Brn1 (S. cerevisiae condensin kleisin subunit) (natural protein)
chain: MTTQLRYENNDDDERVEYNLFTNRSTMMANFEEWIKMATDNKINSRNSWNFALIDYFYDLDVLKDGENNINFQKASATLDGCIKIYSSRVDSVTTETGKLLSGLAQRKTNGASNGDDSNGGNGEGLGGDSDEANIEIDPLTGMPISNDPDVNNTRRRVYNRVLETTLVEFETIKMKELDQELIIDPLFKKALVDFDEGGAKSLLLNTLNIDNTARVIFDASIKDTQNVGQGKLQRKEEELIERDSLVDDENEPSQSLISTRNDSTVNDSVISAPSMEDEILSLGMDFIKFDQIAVCEISGSIEQLRNVVEDINQAKDFIENVNNRFDNFLTEEELQAAVPDNAEDDSDGFDMGMQQELCYPDENHDNTSHDEQDDDNVNSTTGSIFEKDLMAYFDENLNRNWRGREHWKVRNFKKANLVNKESDLLEETRTTIGDTTDKNTTDDKSMDTKKKHKQKKVLEIDFFKTDDSFEDKVFASKGRTKIDMPIKNRKNDTHYLLPDDFHFSTDRITRLFIKPGQKMSLFSHRKHTRGDVSSGLFEKSTVSANHSNNDIPTIADEHFWADNYERKEQEEKEKEQSKEVGDVVGGALDNPFEDDMDGVDFNQAFEGTDDNEEASVKLDLQDDEDHKFPIRENKVTYSRVSKKVDVRRLKKNVWRSINNLIQEHDSRKNREQSSNDSETHTEDESTKELKFSDIIQGISKMYSDDTLKDISTSFCFICLLHLANEHGLQITHTENYNDLIVNYEDLATTQAAS
